Target: GFP-BLM (full-length Bloom helicase, GFP fusion protein) (human) (UniProt P54132)
Test: photobleaching step counting (single-molecule TIRFM, DNA curtain); GFP-tagged BLM (0.2 nM injected) bound to the free ends (30-nt 3' ssDNA overhang) of lambda-DNA tethered to a lipid bilayer; number of GFP photobleaching steps per end-bound complex; BLM buffer (20 mM Tris-HCl pH 7.5, 1 mM MgCl2, 2 mM ATP, 1 mM DTT, 0.2 mg/ml BSA), 37 °C; oligomer counted on DNA ends

stoichiometry N: 1 to 6 monomers
stoichiometry N (BLM monomers per DNA end): 3.6
Substance: GFP-BLM (full-length Bloom helicase, GFP fusion protein), P54132 1-1417 (enzyme; other documents disagree on this pair)

— PMC9042962
